Results on 21 sequences are retold here after the supplement of paper PMC9170038.

For series [1], the system named is MS2 coat protein. Put plainly: apparent KD of MS2 coat protein; higher = weaker reporter binding. The note with it: Eterna round: R101. On the procedure:
(§1)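 RNA-MaP: designed FMN/MS2 RNA switches (84 nt design region) are transcribed on-chip within common flanks and titrated with SNAP-549-labelled MS2 coat protein (about 1-3000 nM) in 100 mM Tris pH 7.5, 80 mM KCl, 4 mM MgCl2, without or with 200 uM FMN. Median apparent KD per design; activation ratio = KD,OFF / KD,ON.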

In series [2] the test system is MS2 coat protein. Put plainly: apparent KD of MS2 coat protein; designed switch direction (-1 OFF switch, 1 ON switch): -1; higher = weaker reporter binding. The note with it: Eterna round: R98. Here is the method:
as §1

As for “AAAUAACUCGAAGGAUAUCAGGGUGCACCUCAGUAAAACUGAGGUGCACCCUGAGAAGGUCGAGGAUCACCCGACCUAAAUAAA [#SharedSequence SLExNG1: 5-2] (puzzle (switch architecture): Small Loop Exclusion NG 1)”, the “apparent KD of MS2 coat protein” value with MS2 coat protein [1] (input ligand: FMN 200 uM) amounted to 19.8 nM; in the series on MS2 coat protein [1] (input ligand: none), 8.38 nM. For “AAAUAACUCGAAGGAUAUGACCCUCGAGGUGACUAAAAGUCACCUCGAGGGUCAGAAGGUCGAGGAUCACCCGACCUAAAUAAA [#SharedSequence SLExNG1: 5-1] (puzzle (switch architecture): Small Loop Exclusion NG 1)” the same measures were 36.8 nM and 10.2 nM. Consider “AAAUAACUUGAAGGAUAUGACCCUCGAGGUGACUAAAAGUCACCUCGAGGGUCAGAAGGUCGAGGAUCACCCGACCUAAAUAAA [#SharedSequence SLExNG1: 6-1] (puzzle (switch architecture): Small Loop Exclusion NG 1)”, for which the “apparent KD of MS2 coat protein” value in the series with MS2 coat protein [1] (input ligand: FMN 200 uM) is 6.69 nM; in the series with MS2 coat protein [1] (input ligand: none), 7.14 nM. Taken in the same sequence, the figures for “ACAGGUCGUGAGAAGGCGUGUGGCACCGUCGAAAGACGGUGCAAUUAAGAUCUUCGAGGAUCACCCGAGGAUAUCACGACCUGA [#SharedSequence - IExNG2: 18] (puzzle (switch architecture): Inverted Exclusion NG 2)” were 70.4 nM and 18.6 nM. With “ACCAUUUACUAAUCCUCUAUACAUGAGGAUCACCCAUGUUCUGAGGAUAUCAUCGUUCGCCGCGUUGAGAAGGCAGAGCAUUCG [AriestionMod 1 - Jieux - Exclusion NG 3]”, the “apparent KD of MS2 coat protein” value was found to be 40.8 nM in the series on MS2 coat protein [2] (input ligand: FMN 200 uM) and 26.8 nM in the series with MS2 coat protein [2] (input ligand: none). In the case of “AGGAGAAAUGUAGGAUAUGGGCGGGCGUACGGGCAAAGCGCGUACGCCCGCCCAGAAGGACAUGAGGAUCACCCAUGUUUCCCU [#Lowering the energy 1] (puzzle (switch architecture): Small Loop Exclusion NG 1)”, the “apparent KD of MS2 coat protein” value with MS2 coat protein [1] (input ligand: FMN 200 uM) is 16 nM; in the series on MS2 coat protein [1] (input ligand: none), 14.5 nM. Taken in the same sequence, the figures for “AGGCAGCACUGCUACGUGGCCUCACAUGAGGAUCACCCAUGUAAGGAUAUCGGGUAGCAUUACCACGAGAAGGUACAUAAGAGG [Ceisle] (puzzle (switch architecture): Exclusion NG 3)” were 25.8 nM and 15 nM. On to “CCUGCACCUCAAGGAUAUCCAGUCGAAACGACUGGAGAAGGUGAGGAUCACCCACCUAGCCUGACGAAAGUCAGGCAUGCAGGA [#SharedSequence - ExNG1-1] (puzzle (switch architecture): Exclusion NG 1)”, for which, in the series on MS2 coat protein [1] (input ligand: FMN 200 uM), the “apparent KD of MS2 coat protein” value stood at 32.8 nM.

As to “GAGGACUGUAAUAAUGUAGAAAUACAUGAGGAUCACCCAUGUAAGGAUAUCGUCAGGAAUACUGACGAGAAGGUACAUCAGUCC [Exclusion NG 3/10-A2]”, the “apparent KD of MS2 coat protein” value stood at 24.8 nM with MS2 coat protein [2] (input ligand: FMN 200 uM) and 17.3 nM in the series with MS2 coat protein [2] (input ligand: none).

Turning to “GGUCGACUUCAAGGAUAUGGACUGCUUUGCAGUCCAGAAGGUGAGGAUCACCCAUCUACGGUCAGGUUUCUGACCGAUCGACCU [#AddUracilToBrourdLoops 8 - Jieux - Exclusion NG1] (puzzle (switch architecture): Exclusion NG 1)”, the “apparent KD of MS2 coat protein” value was determined as 102 nM in the series on MS2 coat protein [1] (input ligand: FMN 200 uM) and 73.4 nM with MS2 coat protein [1] (input ligand: none).

For “GGUCGUCACAUAUACAUGAGGAUCACCCAUGUCAAAAGACAUGAGGAUAUGGAUCCUAAUUGGAUCCAGAAGGCAUGGACGACC [#HiddenHairpinInALoop - Mat - Same State NG 3 - JL Mod - D11] (puzzle (switch architecture): Same State NG 3)”, the entries for the “apparent KD of MS2 coat protein” value in the series on MS2 coat protein [1] (input ligand: FMN 200 uM) and with MS2 coat protein [1] (input ligand: none) were 21.4 nM and 412 nM, respectively.

In the case of “GGUUGUUACGCAGGAUAUUGCCAACAGGCAGUAGGAUAUCCGAAAGGAGAAGGAUCGCCAACAGGCGAGAAGGGCGGGUUAACC [pwkr exNG2 2xF7 2FMN.10.5]”, the entries for the “apparent KD of MS2 coat protein” value with MS2 coat protein [2] (input ligand: FMN 200 uM) and in the series on MS2 coat protein [2] (input ligand: none) were 121 nM and 1240 nM, respectively.

With “GUCACGAAUGUAGGAUAUCGAGUGGAAUACACUCGAGAAGGACAUGAGGAUCACCCAUGUAAAAUGAAAGAUAAUAAACGUGAC [Exclsuion NG 1/2-B1]”, the “apparent KD of MS2 coat protein” value in the series with MS2 coat protein [2] (input ligand: FMN 200 uM) turned out to be 51.7 nM; with MS2 coat protein [2] (input ligand: none), 18 nM.

Take “UAUAAUCUUUAAGGAUAUGACUCCGUUUCGGAGUCAGAAGGUGAGGAUCACCCACCUAGCUCAGGGUCGUUUGACCCUGAGCAU [#AddUracilToBrourdLoops 9 - Jieux - Exclusion NG1] (puzzle (switch architecture): Exclusion NG 1)”: the “apparent KD of MS2 coat protein” value in the series with MS2 coat protein [1] (input ligand: FMN 200 uM) worked out at 10.6 nM; in the series on MS2 coat protein [1] (input ligand: none), 8.87 nM. “UAUAUAAUUAAGAGCUGGUCCAAAACAUGAGGAUCACCCAUGUAGGAUAUCAGCACGAUAAGUGCUGAGAAGGACAACCAGCUC [Denovo 85]”: the “apparent KD of MS2 coat protein” value with MS2 coat protein [2] (input ligand: FMN 200 uM) amounted to 15.2 nM; in the series with MS2 coat protein [2] (input ligand: none) it was 17.2 nM. Taken in the same sequence, the figures for “UAUAUAUAGGCAGGAUAUACAUGUAUAUAUAAUAUAUUAUAUAUUAUUACAUGAGGAUCACCCAUGUAGAAGGGCCAUAAUAUA [LRO035_Exclusion NG 2]” were 52.7 nM and 30 nM. Turning to “UCGACGAAAGUCGAACGAUGUAGCAGAAGGACAUGAGGAUCACCCAUGUCAGCUGUAACAGCCAUGUAGGAUAUGCUACAUCGG [salish99_ISLExNG3_007 #endbits investigation] (puzzle (switch architecture): Inverted Small Loop Exclusion NG 3)”, the “apparent KD of MS2 coat protein” value with MS2 coat protein [1] (input ligand: none) was determined as 4.42 nM. With “UCGGCCCGGGAGAAGGACAUGAGGAUCACCCAUGUCGCCGGGCCCGGGAAACCGGGCCCGGCCAUGUAGGAUAUCCCGGGCCGA [#This is a good prank 2] (puzzle (switch architecture): Inverted Exclusion NG 2)”, the “apparent KD of MS2 coat protein” value came out at 4.79 nM in the series with MS2 coat protein [1] (input ligand: FMN 200 uM) and 4.59 nM with MS2 coat protein [1] (input ligand: none). Taken in the same sequence, the figures for “UGUCGGAGCAGAGGAUAUUACAUGAGGAUCACCCAUGUAUGAACCAAUAGCUGGAAACAGCAAUGUAAGAAGGCUGCUCCGACA (puzzle (switch architecture): Exclusion NG 2)” were 177 nM and 12.3 nM. Taken in the same sequence, the figures for “UUAUUUUUACAGAAGGUUUAAUAAUAUAUAAGAGAAGGAUAUGUAACAUGAGGAUCACCCAUGUUUCACCCAUAUGAGGAUCAU [Astosinvert#10] (puzzle (switch architecture): Inverted Exclusion NG 1)” were 7.94 nM and 8.28 nM. As to “UUCUGUGCCCAAAGUUAAAGCACAUGAGGAUCACCCAUGUGAAAGGAUAUGUGGCAUGUAAUGUUAUAGAAGGUUCACAAUCAA [Reveention]”, the figures for the “apparent KD of MS2 coat protein” value with MS2 coat protein [2] (input ligand: FMN 200 uM) and in the series on MS2 coat protein [2] (input ligand: none) were 22.8 nM and 14.2 nM, respectively.
